Source: patent US20240174741A1

Target: ESYT2_Frag (human) (UniProt A0FGR8)
Assay: CDI HuProt native protein microarray (High-Spec cross-reactivity assay)

F635: 1860
S-Score: 2.15
Z-Score: 5.71
B1: CD1-M8 (antibody, V domains shown)
VH: EVQLQQSGPELVKPGASVKMSCKASGYTFTDYYIHWVKQSHGKGLEWIGYIFPNNGGNGYSQKFKGKATMTVDKSSSTAYMELRSLTSEDSAVYYCARGGYDAGFVYWGQGTLVTVSA
VL: DIVMSQSPSSLAVSAGEKVTMSCKSSQSLFNSGARKNFLAWYQQKPGQSPKLLIYWASTRESGVPDRFTGSGSGTDFTLTISSVQAEDLAVYYCKQSYYLITFGAGTKLELK
